According to patent publication US20090208519A1:

Target: native Neospora caninum cyclophilin (NcCyP) in whole-cell tachyzoite lysate (NcAg) (Neospora caninum) (UniProt P84343)
Assay: cell-based or functional assay

Chain of UniProt P84343 (P84343 18-178 limits assumed): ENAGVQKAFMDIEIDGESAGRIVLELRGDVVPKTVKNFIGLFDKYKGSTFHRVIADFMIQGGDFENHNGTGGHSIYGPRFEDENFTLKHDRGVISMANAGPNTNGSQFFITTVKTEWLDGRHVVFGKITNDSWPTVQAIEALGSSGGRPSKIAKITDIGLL

- NcAg-stimulated IFNγ production in mouse splenocytes: 10 to 100 nM
Substance: cyclosporin A (CsA) (peptide)
